Source: the Immune Epitope Database (IEDB)

How the values were obtained:
[1] = molecular target: HLA-B*35:01; experiment: IEDB peptide-MHC binding, purified MHC/competitive/radioactivity; filed as Kd, often an IC50 or EC50 that approximates it; ≥ and ≤ were set here for values at or beyond the usual limits of such assays; settings: source organism: Dengue virus 1 Brazil/97-11/1997
[2] = molecular target: HLA-B*07:02; experiment: IEDB peptide-MHC binding, purified MHC/competitive/radioactivity; ≥ and ≤ were set here for values at or beyond the usual limits of such assays; settings: source organism: dengue virus type 1
[3] = molecular target: HLA-B*08:02; experiment: IEDB peptide-MHC binding, purified MHC/direct/fluorescence; filed as Kd, often an IC50 or EC50 that approximates it; ≥ and ≤ were set here for values at or beyond the usual limits of such assays
[4] = molecular target: HLA-A*31:01; experiment: as above
[5] = molecular target: HLA-A*03:01; experiment: as above
[6] = molecular target: HLA-B*40:01; experiment: as above
[7] = molecular target: HLA-A*01:01; experiment: as above
[8] = molecular target: HLA-B*46:01; experiment: as above
[9] = molecular target: HLA-B*18:01; experiment: as above
[10] = molecular target: HLA-A*02:01; experiment: as above
[11] = molecular target: HLA-B*58:01; experiment: as above
[12] = molecular target: HLA-A*68:02; experiment: as above
[13] = molecular target: HLA-B*15:01; experiment: as above
[14] = molecular target: HLA-B*07:02; experiment: as above
[15] = molecular target: HLA-B*27:05; experiment: as above
[16] = molecular target: HLA-B*15:17; experiment: as above
[17] = molecular target: HLA-A*11:01; experiment: as above
[18] = molecular target: HLA-B*57:01; experiment: as above
[19] = molecular target: HLA-B*48:01; experiment: as above
[20] = molecular target: HLA-A*26:03; experiment: IEDB peptide-MHC binding, purified MHC/competitive/fluorescence; filed as Kd, often an IC50 or EC50 that approximates it; ≥ and ≤ were set here for values at or beyond the usual limits of such assays; settings: source organism: Orthomarburgvirus marburgense
[21] = molecular target: HLA-B*08:01; experiment: IEDB peptide-MHC binding, purified MHC/direct/fluorescence; filed as Kd, often an IC50 or EC50 that approximates it; ≥ and ≤ were set here for values at or beyond the usual limits of such assays
[22] = molecular target: HLA-B*15:09; experiment: as above
[23] = molecular target: HLA-B*39:01; experiment: as above
[24] = molecular target: HLA-A*02:03; experiment: IEDB peptide-MHC binding, purified MHC/competitive/fluorescence; filed as Kd, often an IC50 or EC50 that approximates it; ≥ and ≤ were set here for values at or beyond the usual limits of such assays; settings: source organism: Influenza A virus H3N2
[25] = molecular target: HLA-A*02:01; experiment: as above; settings: source organism: Influenza A virus H3N2
[26] = molecular target: HLA-A*68:02; experiment: as above; settings: source organism: Influenza A virus H3N2
[27] = molecular target: HLA-A*02:06; experiment: as above
[28] = molecular target: HLA-C*05:01; experiment: IEDB peptide-MHC binding, purified MHC/direct/fluorescence; filed as Kd, often an IC50 or EC50 that approximates it; ≥ and ≤ were set here for values at or beyond the usual limits of such assays; settings: source organism: Bacillus anthracis str. A0389
[29] = molecular target: HLA-A*26:01; experiment: IEDB peptide-MHC binding, purified MHC/competitive/fluorescence; filed as Kd, often an IC50 or EC50 that approximates it; ≥ and ≤ were set here for values at or beyond the usual limits of such assays; settings: source organism: Bacillus anthracis str. A0389
[30] = molecular target: HLA-B*15:09; experiment: as above; settings: source organism: Bacillus anthracis str. A0389
[31] = molecular target: HLA-B*15:01; experiment: as above
[32] = molecular target: HLA-B*40:02; experiment: IEDB peptide-MHC binding, cellular MHC/competitive/fluorescence; ≥ and ≤ were set here for values at or beyond the usual limits of such assays; settings: source organism: Homo sapiens
[33] = molecular target: HLA-A*26:01; experiment: IEDB peptide-MHC binding, purified MHC/direct/fluorescence; filed as Kd, often an IC50 or EC50 that approximates it; ≥ and ≤ were set here for values at or beyond the usual limits of such assays; settings: source organism: Variola virus
[34] = molecular target: HLA-A*26:02; experiment: as above; settings: source organism: Variola virus
[35] = molecular target: HLA-A*69:01; experiment: as above; settings: source organism: Cowpox virus
[36] = molecular target: HLA-B*18:01; experiment: IEDB peptide-MHC binding, purified MHC/competitive/fluorescence; filed as Kd, often an IC50 or EC50 that approximates it; ≥ and ≤ were set here for values at or beyond the usual limits of such assays; settings: source organism: Vaccinia virus Copenhagen
[37] = molecular target: HLA-B*07:02; experiment: as above; settings: source organism: Vaccinia virus Copenhagen
[38] = molecular target: HLA-B*27:05; experiment: as above; settings: source organism: Vaccinia virus Copenhagen
[39] = molecular target: HLA-B*15:17; experiment: as above; settings: source organism: Vaccinia virus Copenhagen
[40] = molecular target: HLA-B*35:01; experiment: as above; settings: source organism: Vaccinia virus Copenhagen
[41] = source organism: Marburg virus - Musoke, Kenya, 1980
[42] = source organism: Influenza A virus (A/equine/New York/1/1999(H3N8))
[43] = source organism: Influenza A virus(A/swine/Shandong/fNY/2003(H9N2))
[44] = source organism: Bacillus anthracis str. A0193
[45] = source organism: Bacillus anthracis
[46] = source organism: Bacillus anthracis str. A0389

**Q.** How did the Kd [1] turn out when HPASAWTLYA was run?
**A.** The Kd was 0.572 µM.

**Q.** And the IC50 [2]?
**A.** The IC50 was 0.00615 µM.

**Q.** How did the Kd ([3]; source organism: Ravn virus - Ravn, Kenya, 1987) turn out when IISTNTLGK was run?
**A.** The Kd was at least 20 µM.

**Q.** What about the Kd [4, 41] of the same sequence?
**A.** Its Kd is at least 20 µM.

**Q.** What about the Kd [5, 41] of the same sequence?
**A.** The Kd was 0.249 µM.

**Q.** What about the Kd [6, 41] of the same sequence?
**A.** The Kd was at least 20 µM.

**Q.** What about the Kd [7, 41] of the same sequence?
**A.** Its Kd is at least 20 µM.

**Q.** And the Kd [8, 41]?
**A.** Its Kd is at least 20 µM.

**Q.** What about the Kd [9, 41] of the same sequence?
**A.** Its Kd is at least 20 µM.

**Q.** And the Kd [10, 41]?
**A.** The Kd was at least 20 µM.

**Q.** And the Kd [11, 41]?
**A.** The Kd was at least 20 µM.

**Q.** What about the Kd [12, 41] of the same sequence?
**A.** The Kd was at least 20 µM.

**Q.** And the Kd [13, 41]?
**A.** The Kd was at least 20 µM.

**Q.** And the Kd [14, 41]?
**A.** Its Kd is at least 20 µM.

**Q.** And the Kd [15, 41]?
**A.** The Kd was at least 20 µM.

**Q.** And the Kd [16, 41]?
**A.** Its Kd is at least 20 µM.

**Q.** What about the Kd [17, 41] of the same sequence?
**A.** Its Kd is 0.129 µM.

**Q.** What about the Kd [18, 41] of the same sequence?
**A.** The Kd was at least 20 µM.

**Q.** What about the Kd [19, 41] of the same sequence?
**A.** Its Kd is at least 20 µM.

**Q.** What about the Kd [20] of the same sequence?
**A.** Its Kd is at least 20 µM.

**Q.** ELVRKTRFL was tested. Which Kd [4, 42] did it give?
**A.** The Kd was at least 20 µM.

**Q.** And the Kd [21, 42]?
**A.** The Kd was 1.62 µM.

**Q.** What about the Kd [7, 42] of the same sequence?
**A.** The Kd was at least 20 µM.

**Q.** What about the Kd [9, 42] of the same sequence?
**A.** Its Kd is at least 20 µM.

**Q.** What about the Kd [11, 42] of the same sequence?
**A.** The Kd was at least 20 µM.

**Q.** What about the Kd [22, 43] of the same sequence?
**A.** The Kd was at least 20 µM.

**Q.** And the Kd [13, 42]?
**A.** The Kd was at least 20 µM.

**Q.** What about the Kd [14, 42] of the same sequence?
**A.** The Kd was at least 20 µM.

**Q.** What about the Kd [17, 42] of the same sequence?
**A.** The Kd was at least 20 µM.

**Q.** What about the Kd [18, 42] of the same sequence?
**A.** The Kd was at least 20 µM.

**Q.** What about the Kd [23, 43] of the same sequence?
**A.** Its Kd is at least 20 µM.

**Q.** And the Kd [24]?
**A.** Its Kd is at least 20 µM.

**Q.** What about the Kd [25] of the same sequence?
**A.** The Kd was at least 20 µM.

**Q.** What about the Kd [26] of the same sequence?
**A.** Its Kd is 1.43 µM.

**Q.** What about the Kd ([27]; source organism: Influenza A virus H3N2) of the same sequence?
**A.** The Kd was 2.88 µM.

**Q.** For FTDNNELEF, which Kd [3, 44] is on record?
**A.** The Kd was at least 20 µM.

**Q.** What about the Kd [28] of the same sequence?
**A.** The Kd was at most 0.001 µM.

**Q.** What about the Kd [4, 45] of the same sequence?
**A.** Its Kd is at least 20 µM.

**Q.** And the Kd [5, 45]?
**A.** The Kd was at least 20 µM.

**Q.** What about the Kd [6, 45] of the same sequence?
**A.** Its Kd is at least 20 µM.

**Q.** What about the Kd [7, 45] of the same sequence?
**A.** Its Kd is 0.002 µM.

**Q.** And the Kd [8, 45]?
**A.** Its Kd is at least 20 µM.

**Q.** What about the Kd [11, 45] of the same sequence?
**A.** Its Kd is 0.212 µM.

**Q.** And the Kd [15, 45]?
**A.** The Kd was at least 20 µM.

**Q.** What about the Kd [16, 45] of the same sequence?
**A.** The Kd was 0.003 µM.

**Q.** And the Kd [17, 45]?
**A.** Its Kd is at least 20 µM.

**Q.** And the Kd [18, 45]?
**A.** The Kd was at least 20 µM.

**Q.** What about the Kd [19, 45] of the same sequence?
**A.** Its Kd is at least 20 µM.

**Q.** And the Kd [23, 44]?
**A.** The Kd was at least 20 µM.

**Q.** What about the Kd [29] of the same sequence?
**A.** Its Kd is at least 20 µM.

**Q.** And the Kd [30]?
**A.** The Kd was at least 20 µM.

**Q.** And the Kd [31, 46]?
**A.** The Kd was at least 20 µM.

**Q.** And the Kd [27, 46]?
**A.** Its Kd is 0.0002 µM.

**Q.** Which IC50 [32] does the source give for REGSFRVTT here?
**A.** Its IC50 is 1.9 µM.

**Q.** What does the source list for YHRFGLYRL?
**A.** Kd ([3]; source organism: Variola virus): ≥ 20 µM; Kd [33]: ≥ 20 µM; Kd ([6]; source organism: Cowpox virus): ≥ 20 µM; Kd ([21]; source organism: Variola virus): ≥ 20 µM; Kd ([7]; source organism: Cowpox virus): ≥ 20 µM; Kd ([8]; source organism: Cowpox virus): ≥ 20 µM; Kd ([10]; source organism: Cowpox virus): ≥ 20 µM; Kd ([11]; source organism: Cowpox virus): ≥ 20 µM; Kd ([12]; source organism: Cowpox virus): ≥ 20 µM; Kd ([22]; source organism: Variola virus): 2.43 µM; Kd ([18]; source organism: Cowpox virus): ≥ 20 µM; Kd [34]: ≥ 20 µM; Kd [35]: ≥ 20 µM; Kd ([23]; source organism: Cowpox virus): 5.05 µM; Kd [36]: 2.66 µM; Kd ([31]; source organism: Vaccinia virus Copenhagen): ≥ 20 µM; Kd [37]: ≥ 20 µM; Kd [38]: ≥ 20 µM; Kd [39]: ≥ 20 µM; Kd [40]: 2.7 µM
